Measurements from publication PMC6256345 (2018).
Non-standard residues stand in square brackets, D forms with d. *: point of attachment. Pyrrolidinyl(2S-CHPh2) = c1ccc(C(c2ccccc2)[C@@H]2CCCN2*)cc1; pS = N[C@@H](COP(=O)(O)O)C(=O)O

Key:
[1] = target: T1, modified Tau peptide 4.2f-I pS214 epitope (Homo sapiens, UniProt P10636, also: substituent position not given here); assay: ITC
T1 chain: Ac-SRTP[pS]LPG-{methoxy‑substituted benzhydrylpyrrolidine}

[2] = target: T2, modified Tau peptide 3.2c pS214 epitope (Homo sapiens, UniProt P10636, phosphoS214, N-acetyl, C-terminal L-Ala-(S)-2-benzhydrylpyrrolidine); assay: ITC
[3] = target: T3, modified Tau peptide 3.2a pS214 epitope (Homo sapiens, UniProt P10636, phosphoS214, N-acetyl, C-terminal L-Thr-(S)-2-benzhydrylpyrrolidine); assay: ITC
[4] = target: T4, modified Tau peptide 3.2d pS214 epitope (Homo sapiens, UniProt P10636, phosphoS214, N-acetyl, C-terminal D-Ala-(S)-2-benzhydrylpyrrolidine); assay: ITC
[5] = target: T5, modified Tau peptide 3.2f pS214 epitope (Homo sapiens, UniProt P10636, SMILES …); assay: ITC
T5 chain: Ac-SRTP[pS]LP[dV]-{Pyrrolidinyl(2S-CHPh2)}

[6] = target: T6, modified Tau peptide 4.2d-II pS214 epitope (Homo sapiens, UniProt P10636, also: regioisomer, substituent position not given here); assay: ITC
T6 chain: Ac-SRTP[pS]LPG-{(methoxyethoxy)‑substituted benzhydrylpyrrolidine}

[7] = target: T7, modified Tau peptide 3.2b pS214 epitope (Homo sapiens, UniProt P10636, phosphoS214, N-acetyl, C-terminal Gly-(S)-2-benzhydrylpyrrolidine); assay: ITC
[8] = target: T2, modified Tau peptide 3.2c pS214 epitope; assay: FP competition
[9] = target: T8, modified Tau peptide 3.2e pS214 epitope (Homo sapiens, UniProt P10636, SMILES …); assay: FP competition
T8 chain: Ac-SRTP[pS]LPV-{Pyrrolidinyl(2S-CHPh2)}

[10] = target: T3, modified Tau peptide 3.2a pS214 epitope; assay: FP competition
[11] = target: T4, modified Tau peptide 3.2d pS214 epitope; assay: FP competition
[12] = target: T5, modified Tau peptide 3.2f pS214 epitope; assay: FP competition
[13] = target: T7, modified Tau peptide 3.2b pS214 epitope; assay: FP competition

B1: 14-3-3ζ (protein)
chain: MDKNELVQKAKLAEQAERYDDMAACMKSVTEQGAELSNEERNLLSVAYKNVVGARRSSWRVVSSIEQKTEGAEKKQQMAREYREKIETELRDICNDVLSLLEKFLIPNASQAESKVFYLKMKGDYYRYLAEVAAGDDKKGIVDQSQQAYQEAFEISKKEMQPTHPIRLGLALNFSVFYYEILNSPEKACSLAKTAFDEAIAELDTLSEESYKDSTLIMQLLRDNLTLWTSDTQGDEAEAGEGGEN
B1 was tested, and the Kd [1] was 4.7 µM, the Kd [2] was 3.3 µM and the Kd [3] was 5.4 µM. It also gave a Kd [4] of 3 µM, a Kd [5] of 3.4 µM and a Kd [6] of 20.6 µM. It also gave a Kd [7] of 5.6 µM, an IC50 [8] of 5.3 µM and an IC50 [9] of 6.2 µM. For the same binder, the IC50 [10] was 8.1 µM, the IC50 [11] was 6.2 µM and the IC50 [12] was 7.6 µM. The IC50 [13] was 5.9 µM.
